Experimental findings from patent US20210024635A1 (IMMATICS BIOTECHNOLOGIES, published 2021) are described below.

Broadly, the EC50 is the midpoint of the concentration-response curve. The term EC50 (read off the curve) denotes the concentration at which the effect is half-maximal.

The target in test [1] is T1, PIGQ peptide/HLA-A0201 complex (human, biotinylated (site not stated)).
T1 construct: Negative control / counter target complex; also called PIGQ/HLA; PIGQ/HLA complex
The test is described as follows: ELISA as in Example 3; biotinylated peptide/HLA complex coated at 50 nM on Neutravidin plates, IgG titrated, AP-conjugated goat anti-human IgG, RFU.

Test [2] addresses T2, WT1 RMF peptide/HLA-A0201 complex (isolated, recombinant, biotinylated) (human). The test is described as follows: ELISA on Neutravidin plates, IgG.
Test [3] concerns the target T3, RMF/HLA complex on antigen-positive cancer cells (SET2, BV173) (human).
T3 construct: whole, on cells; Naturally presented complex on SET2 (DSMZ ACC 608) and BV173 (DSMZ ACC 20) cells; also called RMF/HLA complex on cells; WT1/HLA-expressing cells
Briefly: flow cytometry on SET2 cells, IgG; '++' = EC50 below 10 nM, '+' = EC50 of more than 10 nM. As for the experimental part: (§1) SET2 cells (DSMZ No. ACC 608) and BV173 cells (DSMZ No. ACC 20) were used as antigen-positive cancer cells (see Dao et al.; 2013). Binding was measured by flow cytometry utilizing a PE-conjugated goat anti-human IgG secondary antibody, and EC50 values were determined.
(§2) Example 4 was repeated with the antibodies of the present disclosure, i.e. binding to RNF/HLA-positive SET2 cells (DSMZ No. ACC 608) and BV173 cells (DSMZ No. ACC 20) was tested by flow cytometry. EC50 values were determined.
(In general: Flow cytometry measures light scatter and fluorescence of single cells or particles in a stream.)

Test [4] addresses T2, WT1 RMF peptide/HLA-A0201 complex …. The test is described as follows: ELISA as in Example 3; biotinylated peptide/HLA complex coated at 50 nM on Neutravidin plates, IgG titrated, AP-conjugated goat anti-human IgG, RFU.
Test [5] concerns the target T3, RMF/HLA complex on antigen-positive …. Briefly: flow cytometry on BV173 cells, IgG; '++' = EC50 below 10 nM, '+' = EC50 of more than 10 nM. Here is the method:
as §1, §2

Test [6] concerns the target T2, WT1 RMF peptide/HLA-A0201 complex …. Briefly: ELISA on Neutravidin plates, IgG; '++' = EC50 below 10 nM, '+' = EC50 of more than 10 nM. (ELISA stands for enzyme-linked immunosorbent assay.)
Test [7] has as its target T4, WT1 RMF peptide/HLA-A0201 complex (isolated, recombinant, biotinylated) (human).
T4 construct: also called RMF/HLA; RMF/HLA complex
The test is described as follows: ELISA on Neutravidin plates, IgG.

Test [8] addresses T4, WT1 RMF peptide/HLA-A0201 complex …. The test is described as follows: ELISA as in Example 3; biotinylated peptide/HLA complex coated at 50 nM on Neutravidin plates, IgG titrated, AP-conjugated goat anti-human IgG, RFU.
Test [9] shares this target. Briefly: ELISA on Neutravidin plates, IgG; '++' = EC50 below 10 nM, '+' = EC50 of more than 10 nM.
The target is the same in test [10]. Briefly: Octet (BLI), IgG, apparent (bivalent) affinity; dissociation too slow for the limits of the system. As for the experimental part: The apparent affinity of the binders Aali and Refmab #13 was measured for the RMF/HLA antigen with an Octet system. […] The binding of Aali was characterized by a very slow dissociation rate, which exceeded the specification limits that were set in the system.
On the technique in general: BLI is a label-free optical method that tracks binding on a fibre tip over time.

The target is the same in test [11]. The test is described as follows: ELISA on Neutravidin plates, Fab; EC50 compared with the best reference Fab (not named). As for the experimental part:
The binders were subjected to an in-depth characterization. They were directly compared to the antibodies of the prior art in an ELISA assay using Neutravidin plates as described in Example 3. For selected reference antibodies and binders of the present invention, the EC50 were determined.
Furthermore, none of the binders of the present invention show any binding to the counter targets, in particular no binding to the PIGQ/HLA complex.

Test [12] has as its target T1, PIGQ peptide/HLA-A0201 complex. Briefly: ELISA on Neutravidin plates, Fab; '---' = no binding.
The target in test [13] is T4, WT1 RMF peptide/HLA-A0201 complex …. Briefly: ELISA on Neutravidin plates, Fab; '++' = EC50 below 10 nM, '+' = EC50 of more than 10 nM.
Test [14] shares this target. Briefly: Octet (BLI), Fab, antigen immobilized to Streptavidin. Here is the method:
Affinities of the Fab fragments of binders Aali and Refmab #13 for the antigen RMF/HLA were also measured with an Octet system using the antigen immobilized to Streptavidin.

B1: Bibi (IgG1) (antibody, V domains shown)
VH: EVQLVESGGGLVKPGGSLRLSCAASGFTFSSYSMNWVRQAPGKGLEWVSSISSSSSYIYYADSVKGRFTISRDNAKNSLYLQMNSLRAEDTAVYYCARTESVWHLGFDIWGQGTLVTVSS
VL: DIQMTQSPSSVSASVGDRVTITCRASQGISSWLAWYQQKPGKAPKLLIYAASSLQSGVPSRFSGSGSGTDFTLTISSLQPEDFATYYCQQNHKYPITFGQGTKVEIKR
Consider B1, for which the binding result in test [1] is listed as “no binding”. Besides, the EC50 in [2] is under 0.001 µM; in [3] it was over 0.01 µM; in test [5], over 0.01 µM; in test [6], under 0.01 µM. Besides, the “EC50 (read off the curve)” value in test [4] is about 0.0003 µM.

B2: Elfu (IgG1) (antibody, V domains shown)
VH: EVQLVQSGAEVKKPGESLKISCKGSGYSFTSYWISWVRQMPGKGLEWMGIIYPGTSYTRYSPSFQGQVTISADKSISTAYLQWSSLKASDTAMYYCARGYHLPYFDYWGQGTLVTVSS
VL: QSVLTQPPSVSGAPGQRVTISCTGSSSNIGAGYDVHWYQQLPGTAPKLLIYGNSNRPSGVPDRFSGSKSGTSASLAITGLQAEDEADYYCQAYASPTRVVFGGGTKLTVLG
Turning to B2, in test [1], the binding result is given as “no binding”. In addition, the EC50 is under 0.001 µM in [2], over 0.01 µM in test [3], over 0.01 µM in test [5] and under 0.01 µM in test [6]. Besides, the concentration giving a half-maximal response (EC50 (read off the curve)) in test [4] was about 0.0003 µM.

B3: Aali (IgG1) (antibody, V domains shown)
VH: QVQLVESGGGLVKPGGSLRLSCAASGFTFSDHYISWIRQAPGKGLEWVSYISSSGSTTYYAESVKGRFTISRDNAKNSLYLQMNSLRAEDTAVYYCARTYAYRYDFDLWGQGTLVTVSS
VL: QSVLTQPPSVSGAPGQRVTISCTGSSSNIGAGYDVHWYQQLPGTAPKLLIYGNSNRPSGVPDRFSGSKSGTSASLAITGLQAEDEADYYCQTWVHSYSTPVFGGGTKLTVLG
With B3, the binding result in test [1] is “no binding”. For the same molecule, the EC50 in [7] was under 0.001 µM; in [3] it was under 0.01 µM; in test [5], over 0.01 µM; in [9], under 0.01 µM. Also, the “EC50 (read off the curve)” value in test [8] is about 0.0005 µM. Further, the Kd in [10] is under 0.0005 µM.

B4: Aali (Fab) (Fab, V domains shown)
VH: QVQLVESGGGLVKPGGSLRLSCAASGFTFSDHYISWIRQAPGKGLEWVSYISSSGSTTYYAESVKGRFTISRDNAKNSLYLQMNSLRAEDTAVYYCARTYAYRYDFDLWGQGTLVTVSS
VL: QSVLTQPPSVSGAPGQRVTISCTGSSSNIGAGYDVHWYQQLPGTAPKLLIYGNSNRPSGVPDRFSGSKSGTSASLAITGLQAEDEADYYCQTWVHSYSTPVFGGGTKLTVLG
notes: Tested in monovalent Fab format; also called Aali Fab fragment
Turning to B4, in [11], the “fold better EC50 than the best binder of the prior art” value (“fold better EC50 than the best binder” below) is at least 3.3 fold. For the same molecule, in test [12], the binding result is given as “no binding”. Moreover, in test [13], the EC50 was under 0.01 µM. Moreover, in [14], the Kd came to 0.066 µM.

B5: Cyprus (IgG1) (antibody, V domains shown)
VH: QVQLVESGGGLVKPGGSLRLSCAASGFTFSDYYMSWIRQAPGKGLEWVSYISSSGSTIYYADSVKGRFTISRDNAKNSLYLQMNSLRAEDTAVYYCARDGLRYFYGFDYWGQGTLVTVSS
VL: QSVLTQPPSVSAAPGQKVTISCSGSSSNIGNNYVSWYQQLPGTAPKLLIYDNNKRPSGIPDRFSGSKSGTSATLGITGLQTEDEADYYCQAWVHYSLVHWVFGGGTKLTVLG
As to B5, the binding result in [1] is “no binding”. In addition, the EC50 in [7] is under 0.001 µM; in test [3] it was over 0.01 µM; in test [5], over 0.01 µM; in [9] it was under 0.01 µM. For the same molecule, the 50% effective concentration (EC50 (read off the curve)) in [8] is about 0.0003 µM.

B6: Fiwi (Fab) (Fab, V domains shown)
VH: EVQLVESGGGLVKPGGSLRLSCAASGFTFSNYWISWVRQAPGKGLEWVGRIKSKTYGGTTDYAEPVKGRFTISRDDSKNTLYLQMNSLKTEDTAVYYCARGRYPELGYFDLWGQGTLVTVSS
VL: QSVLTQPPSVSAAPGQKVTISCSGSSSNIGNNYVSWYQQLPGTAPKLLIYDNNKRPSGIPDRFSGSKSGTSATLGITGLQTEDEADYYCGAWDSYLSVSFVFGGGTKLTVLG
notes: Tested in monovalent Fab format
Consider B6, for which the “fold better EC50 than the best binder” value in test [11] was at least 3.3 fold. In [12], the binding result was “no binding”. Further, the EC50 in test [13] is over 0.01 µM.

B7: Fiwi (IgG1) (antibody, V domains shown)
VH: EVQLVESGGGLVKPGGSLRLSCAASGFTFSNYWISWVRQAPGKGLEWVGRIKSKTYGGTTDYAEPVKGRFTISRDDSKNTLYLQMNSLKTEDTAVYYCARGRYPELGYFDLWGQGTLVTVSS
VL: QSVLTQPPSVSAAPGQKVTISCSGSSSNIGNNYVSWYQQLPGTAPKLLIYDNNKRPSGIPDRFSGSKSGTSATLGITGLQTEDEADYYCGAWDSYLSVSFVFGGGTKLTVLG
Consider B7, for which, in [1], the binding result is recorded as “no binding”. The EC50 in test [7] was under 0.001 µM; in test [3], over 0.01 µM; in test [5], over 0.01 µM; in test [9], under 0.01 µM. Further, the concentration giving a half-maximal response (EC50 (read off the curve)) in test [8] is about 0.0003 µM.

B8: Daniel (IgG1) (antibody, V domains shown)
VH: QVQLVQSGAEVKKPGASVKVSCKASGYTFTSYYMHWVRQAPGQGLEWMGIINPSGGSTSYAQKFQGRVTMTRDTSTSTVYMELSSLRSEDTAVYYCAREGYTPGGSYTFDIWGQGTLVTVSS
VL: QSVLTQPPSVSAAPGQKVTISCSGSSSNIGNNYVSWYQQLPGTAPKLLIYDNNKRPSGIPDRFSGSKSGTSATLGITGLQTEDEADYYCGSWDGFVSSYSVFGGGTKLTVLG
In the case of B8, the binding result in [1] was “no binding”. In addition, the EC50 is under 0.001 µM in test [7], under 0.01 µM in test [3], over 0.01 µM in test [5] and under 0.01 µM in test [9]. For the same molecule, in test [8], the “EC50 (read off the curve)” value was about 0.0003 µM.

B9: Cyprus (Fab) (Fab, V domains shown)
VH: QVQLVESGGGLVKPGGSLRLSCAASGFTFSDYYMSWIRQAPGKGLEWVSYISSSGSTIYYADSVKGRFTISRDNAKNSLYLQMNSLRAEDTAVYYCARDGLRYFYGFDYWGQGTLVTVSS
VL: QSVLTQPPSVSAAPGQKVTISCSGSSSNIGNNYVSWYQQLPGTAPKLLIYDNNKRPSGIPDRFSGSKSGTSATLGITGLQTEDEADYYCQAWVHYSLVHWVFGGGTKLTVLG
notes: as for B6
Regarding B9, in test [11], the “fold better EC50 than the best binder” value was at least 3.3 fold. In [12], the binding result is “no binding”. Further, in test [13], the concentration giving a half-maximal response (EC50) is under 0.01 µM.

B10: Daniel (Fab) (Fab, V domains shown)
VH: QVQLVQSGAEVKKPGASVKVSCKASGYTFTSYYMHWVRQAPGQGLEWMGIINPSGGSTSYAQKFQGRVTMTRDTSTSTVYMELSSLRSEDTAVYYCAREGYTPGGSYTFDIWGQGTLVTVSS
VL: QSVLTQPPSVSAAPGQKVTISCSGSSSNIGNNYVSWYQQLPGTAPKLLIYDNNKRPSGIPDRFSGSKSGTSATLGITGLQTEDEADYYCGSWDGFVSSYSVFGGGTKLTVLG
notes: as for B6
Consider B10, for which the “fold better EC50 than the best binder” value in [11] is at least 3.3 fold. Also, the binding result in [12] is recorded as “no binding”. For the same molecule, the EC50 in test [13] is under 0.01 µM.
